From US20030186334A1, “KTS-disintegrins” (Temple University - Of the Commonwealth System of Higher …, priority 2001, published 2003) come the findings set out here.

Assay [1] deals with human α1β1 integrin (human) (UniProt P56199). Put plainly: inhibition of adhesion of α1K562 cells to immobilised collagen IV.
The target of a further assay is α6β1 integrin (UniProt P23229). Put plainly: inhibition of adhesion of α6K562 cells to laminin.
Sequence of α6β1 integrin (P23229 24-1130, chain 1 of 2): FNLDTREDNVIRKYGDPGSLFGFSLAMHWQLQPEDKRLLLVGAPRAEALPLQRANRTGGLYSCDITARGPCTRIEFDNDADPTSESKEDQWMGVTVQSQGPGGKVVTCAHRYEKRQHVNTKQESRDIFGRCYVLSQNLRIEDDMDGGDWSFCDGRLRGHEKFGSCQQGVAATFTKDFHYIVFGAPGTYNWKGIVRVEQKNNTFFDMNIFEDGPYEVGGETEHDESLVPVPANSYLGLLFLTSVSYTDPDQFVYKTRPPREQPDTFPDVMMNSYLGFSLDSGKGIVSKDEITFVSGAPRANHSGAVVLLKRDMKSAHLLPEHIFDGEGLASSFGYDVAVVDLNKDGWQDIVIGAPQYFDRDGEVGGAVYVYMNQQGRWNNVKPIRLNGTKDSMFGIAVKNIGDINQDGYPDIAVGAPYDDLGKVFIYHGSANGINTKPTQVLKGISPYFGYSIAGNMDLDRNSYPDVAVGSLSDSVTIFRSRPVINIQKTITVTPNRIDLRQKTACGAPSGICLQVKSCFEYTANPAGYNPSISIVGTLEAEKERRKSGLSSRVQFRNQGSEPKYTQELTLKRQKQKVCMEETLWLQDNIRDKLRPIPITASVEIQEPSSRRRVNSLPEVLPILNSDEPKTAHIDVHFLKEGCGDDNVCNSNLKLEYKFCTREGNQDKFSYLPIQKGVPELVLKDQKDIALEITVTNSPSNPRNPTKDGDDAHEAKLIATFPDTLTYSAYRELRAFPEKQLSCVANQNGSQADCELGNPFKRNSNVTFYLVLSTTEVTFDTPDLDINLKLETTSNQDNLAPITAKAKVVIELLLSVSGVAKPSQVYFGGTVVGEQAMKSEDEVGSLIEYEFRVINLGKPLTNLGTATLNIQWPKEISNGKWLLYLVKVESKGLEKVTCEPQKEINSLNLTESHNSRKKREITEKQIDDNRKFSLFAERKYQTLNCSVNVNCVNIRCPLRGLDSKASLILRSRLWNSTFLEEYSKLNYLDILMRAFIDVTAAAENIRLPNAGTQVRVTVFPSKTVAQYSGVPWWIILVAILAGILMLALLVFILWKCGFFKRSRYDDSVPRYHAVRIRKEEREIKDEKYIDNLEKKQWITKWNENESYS
Sequence of α6β1 integrin (P05556 21-798, chain 2 of 2, further chain): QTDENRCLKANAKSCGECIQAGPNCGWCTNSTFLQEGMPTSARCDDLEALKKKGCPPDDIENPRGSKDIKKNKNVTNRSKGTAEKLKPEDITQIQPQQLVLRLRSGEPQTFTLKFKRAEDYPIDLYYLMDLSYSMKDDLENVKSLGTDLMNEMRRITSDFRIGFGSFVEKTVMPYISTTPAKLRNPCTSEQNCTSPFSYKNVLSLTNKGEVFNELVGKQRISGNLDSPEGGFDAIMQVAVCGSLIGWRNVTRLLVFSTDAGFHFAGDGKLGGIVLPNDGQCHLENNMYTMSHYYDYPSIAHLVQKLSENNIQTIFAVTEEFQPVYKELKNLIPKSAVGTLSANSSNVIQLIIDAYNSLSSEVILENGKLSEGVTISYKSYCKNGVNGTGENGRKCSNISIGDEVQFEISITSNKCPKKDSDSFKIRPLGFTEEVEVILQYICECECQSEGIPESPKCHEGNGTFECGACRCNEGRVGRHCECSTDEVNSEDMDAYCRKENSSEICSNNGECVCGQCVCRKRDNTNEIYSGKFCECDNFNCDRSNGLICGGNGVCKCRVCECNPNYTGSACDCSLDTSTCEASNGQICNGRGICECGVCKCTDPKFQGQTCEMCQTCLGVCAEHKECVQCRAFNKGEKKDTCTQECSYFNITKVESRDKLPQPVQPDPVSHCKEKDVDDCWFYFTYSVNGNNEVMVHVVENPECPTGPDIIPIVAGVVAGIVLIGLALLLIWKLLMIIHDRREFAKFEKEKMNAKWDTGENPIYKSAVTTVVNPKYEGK

Sequence of human α1β1 integrin (human) (P56199 29-1179, chain 1 of 2): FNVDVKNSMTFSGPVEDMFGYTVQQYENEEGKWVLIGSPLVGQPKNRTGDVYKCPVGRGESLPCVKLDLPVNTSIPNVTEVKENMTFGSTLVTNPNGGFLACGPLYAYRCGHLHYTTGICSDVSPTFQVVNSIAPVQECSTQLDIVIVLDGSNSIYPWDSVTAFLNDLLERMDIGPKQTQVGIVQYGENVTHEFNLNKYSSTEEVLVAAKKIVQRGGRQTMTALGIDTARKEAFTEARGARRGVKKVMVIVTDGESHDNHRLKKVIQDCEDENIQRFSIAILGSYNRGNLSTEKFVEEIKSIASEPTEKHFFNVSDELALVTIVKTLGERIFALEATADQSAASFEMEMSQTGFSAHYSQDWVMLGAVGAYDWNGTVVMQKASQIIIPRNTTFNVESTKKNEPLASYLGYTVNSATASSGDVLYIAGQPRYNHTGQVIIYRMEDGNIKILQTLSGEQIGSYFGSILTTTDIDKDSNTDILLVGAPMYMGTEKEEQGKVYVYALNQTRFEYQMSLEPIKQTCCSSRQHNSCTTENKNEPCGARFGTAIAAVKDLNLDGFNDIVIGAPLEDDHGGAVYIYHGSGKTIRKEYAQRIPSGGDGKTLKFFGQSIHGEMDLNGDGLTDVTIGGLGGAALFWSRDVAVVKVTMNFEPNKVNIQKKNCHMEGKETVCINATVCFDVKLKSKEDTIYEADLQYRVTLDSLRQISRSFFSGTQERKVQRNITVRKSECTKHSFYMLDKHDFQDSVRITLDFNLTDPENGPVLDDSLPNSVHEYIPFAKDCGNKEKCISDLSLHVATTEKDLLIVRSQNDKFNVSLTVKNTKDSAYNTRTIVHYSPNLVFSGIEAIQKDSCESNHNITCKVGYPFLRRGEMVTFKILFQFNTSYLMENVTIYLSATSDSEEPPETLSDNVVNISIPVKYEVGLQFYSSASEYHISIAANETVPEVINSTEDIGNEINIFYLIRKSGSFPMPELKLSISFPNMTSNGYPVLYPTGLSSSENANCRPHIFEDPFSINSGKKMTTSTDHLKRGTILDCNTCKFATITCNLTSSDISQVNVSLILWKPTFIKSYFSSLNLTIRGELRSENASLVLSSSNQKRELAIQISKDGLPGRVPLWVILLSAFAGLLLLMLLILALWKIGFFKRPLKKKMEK
Sequence of human α1β1 integrin (human) (P05556 21-798, chain 2 of 2, further chain): as the sequence (P05556 21-798, chain 2 of 2, further chain) above

In the case of “Ethylpyridylated obtustatin (EP-obtustatin) (peptide)”, in assay [1], the IC50 worked out at 30 µM.

On to “echistatin (from UniProt P17347 131-179) (peptide)”, for which, in the assay with α6β1 integrin, the IC50 was greater than 10 µM.

In the case of “eristostatin (from UniProt P0C6S4 1-49) (peptide)”, in the assay with α6β1 integrin, the IC50 was greater than 10 µM.

obtustatin (peptide): the IC50 with α6β1 integrin was greater than 10 µM.

Take viperisrastatin (peptide): the concentration for half-maximal inhibition (IC50) in the assay with α6β1 integrin was greater than 10 µM.

By IC50 is commonly meant the concentration that inhibits the measured activity by half. A high value points to weaker potency in that assay.
